The subject of this series is LUX ARRHYTHMO (LUX/PCL1) (Arabidopsis). The series can be described thus: protein binding microarray. The following applies: not stated in the material.

In turn, PBM top-ranked 8-mer AGATACGC registered a binding signal (PBM E-score (-0.5 to 0.5)) of 0.487.

Values taken from paper PMC3057456.
